The labels stand for the following.
T1: HCoV-NL63 Spike protein (HCoV-NL63, UniProt Q6Q1S2 19-717)
T1 sequence: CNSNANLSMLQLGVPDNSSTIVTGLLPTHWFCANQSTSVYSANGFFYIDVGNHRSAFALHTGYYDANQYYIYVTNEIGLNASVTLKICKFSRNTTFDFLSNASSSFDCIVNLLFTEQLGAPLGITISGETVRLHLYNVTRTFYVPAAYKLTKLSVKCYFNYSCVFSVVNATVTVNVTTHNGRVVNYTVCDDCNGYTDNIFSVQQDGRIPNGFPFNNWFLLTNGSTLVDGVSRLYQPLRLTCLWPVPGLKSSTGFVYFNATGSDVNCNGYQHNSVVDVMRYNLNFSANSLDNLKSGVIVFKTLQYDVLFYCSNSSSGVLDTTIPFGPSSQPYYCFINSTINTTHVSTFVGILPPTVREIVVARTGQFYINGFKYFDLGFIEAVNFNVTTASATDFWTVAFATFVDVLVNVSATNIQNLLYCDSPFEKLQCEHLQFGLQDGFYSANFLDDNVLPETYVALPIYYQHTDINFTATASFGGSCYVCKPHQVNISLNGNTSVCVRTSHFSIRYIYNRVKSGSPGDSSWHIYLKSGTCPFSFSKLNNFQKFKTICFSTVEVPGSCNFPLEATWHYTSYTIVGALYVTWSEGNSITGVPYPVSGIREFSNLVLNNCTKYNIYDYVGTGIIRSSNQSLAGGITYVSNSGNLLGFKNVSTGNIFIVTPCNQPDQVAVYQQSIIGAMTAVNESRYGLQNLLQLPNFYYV

T2: HCov-HKU1 Spike protein (HCoV-HKU1, UniProt Q5MQD0 13-760)
T2 sequence: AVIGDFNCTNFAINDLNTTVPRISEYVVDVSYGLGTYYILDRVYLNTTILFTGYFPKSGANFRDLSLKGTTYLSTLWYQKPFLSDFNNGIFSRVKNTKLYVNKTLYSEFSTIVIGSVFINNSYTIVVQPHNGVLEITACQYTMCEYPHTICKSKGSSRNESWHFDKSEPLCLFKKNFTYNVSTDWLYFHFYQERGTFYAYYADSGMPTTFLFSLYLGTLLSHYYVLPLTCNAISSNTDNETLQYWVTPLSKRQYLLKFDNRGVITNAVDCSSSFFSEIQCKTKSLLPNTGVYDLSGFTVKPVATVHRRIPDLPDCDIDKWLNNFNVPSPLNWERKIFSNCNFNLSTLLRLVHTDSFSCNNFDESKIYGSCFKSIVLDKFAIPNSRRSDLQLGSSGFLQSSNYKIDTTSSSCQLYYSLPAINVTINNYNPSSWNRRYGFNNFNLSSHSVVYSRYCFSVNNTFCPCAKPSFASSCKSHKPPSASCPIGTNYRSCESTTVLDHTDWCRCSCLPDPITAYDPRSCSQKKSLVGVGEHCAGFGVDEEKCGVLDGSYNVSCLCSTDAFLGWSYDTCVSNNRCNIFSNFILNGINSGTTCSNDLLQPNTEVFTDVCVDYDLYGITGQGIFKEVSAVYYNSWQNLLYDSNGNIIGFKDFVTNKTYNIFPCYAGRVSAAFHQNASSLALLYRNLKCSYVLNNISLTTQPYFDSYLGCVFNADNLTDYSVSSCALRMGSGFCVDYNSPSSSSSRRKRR

T3: HCoV-229E Spike protein (HCoV-229E, UniProt P15423 16-560)
T3 sequence: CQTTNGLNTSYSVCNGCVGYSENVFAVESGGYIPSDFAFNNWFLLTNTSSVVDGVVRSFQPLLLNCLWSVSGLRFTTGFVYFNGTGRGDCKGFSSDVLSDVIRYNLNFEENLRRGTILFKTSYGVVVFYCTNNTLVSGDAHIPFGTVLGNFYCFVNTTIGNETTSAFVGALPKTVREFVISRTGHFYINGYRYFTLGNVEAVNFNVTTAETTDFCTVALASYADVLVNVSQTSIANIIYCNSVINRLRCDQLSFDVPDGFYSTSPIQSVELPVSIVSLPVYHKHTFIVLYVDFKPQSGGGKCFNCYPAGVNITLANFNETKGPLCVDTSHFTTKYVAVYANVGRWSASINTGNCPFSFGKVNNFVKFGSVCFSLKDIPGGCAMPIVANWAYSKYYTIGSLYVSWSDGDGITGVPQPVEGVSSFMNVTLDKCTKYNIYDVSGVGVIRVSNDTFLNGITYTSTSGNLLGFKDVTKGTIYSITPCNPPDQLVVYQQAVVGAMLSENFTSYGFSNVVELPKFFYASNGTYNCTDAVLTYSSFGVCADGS

T4: MERS-CoV Spike protein (MERS-CoV, UniProt K9N5Q8 18-725)
T4 sequence: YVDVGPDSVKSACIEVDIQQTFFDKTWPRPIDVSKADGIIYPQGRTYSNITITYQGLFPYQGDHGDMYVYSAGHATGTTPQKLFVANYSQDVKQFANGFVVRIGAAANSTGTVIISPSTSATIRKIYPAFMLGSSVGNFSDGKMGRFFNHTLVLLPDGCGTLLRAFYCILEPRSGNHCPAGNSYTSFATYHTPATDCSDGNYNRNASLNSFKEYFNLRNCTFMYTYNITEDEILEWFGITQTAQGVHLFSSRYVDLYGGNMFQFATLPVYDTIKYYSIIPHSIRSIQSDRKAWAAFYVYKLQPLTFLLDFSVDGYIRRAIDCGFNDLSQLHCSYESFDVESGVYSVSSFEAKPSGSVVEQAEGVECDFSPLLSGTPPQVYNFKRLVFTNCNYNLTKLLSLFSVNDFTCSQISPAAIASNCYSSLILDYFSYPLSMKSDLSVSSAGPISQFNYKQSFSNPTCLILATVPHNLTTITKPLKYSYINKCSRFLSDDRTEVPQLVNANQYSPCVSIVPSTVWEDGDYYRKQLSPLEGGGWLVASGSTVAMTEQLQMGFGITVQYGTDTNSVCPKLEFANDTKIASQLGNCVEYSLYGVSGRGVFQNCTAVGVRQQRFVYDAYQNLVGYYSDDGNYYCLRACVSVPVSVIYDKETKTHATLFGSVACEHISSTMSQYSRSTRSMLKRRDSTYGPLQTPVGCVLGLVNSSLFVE

B1: YU537-H11 (Fab) (Fab, V domains shown)
VH: EVQLLESGGGLIQPGGSLRLSCAASGLTVSSNYMSWVRQAPGKGLEWVSVIYSGGSTYYADSVKGRFTISRDNSKNALYLQMNSLRAEDTAVYYCARGESGSPYGMDVWGQGTLVTVSS
VL: QSVLTQPPSVSAAPGQKVTISCSGSSSNIGNNYVSWYQQLPGTAPKLLIYDTNKRPSGIPDRFSGSKSGTSATLGITGLQTGDEADYYCATWDSSLSVGVFGGGTKLTVL
B2: STE90-C11 (Fab) (Fab, V domains shown)
VH: QVQLVESGGGLVQPGGSLRLSCAASGLTVSSNYMSWVRQAPGKGLEWVSVIYSGGSTYYADSVKGRFTISRDDSKNTLYLQMNSLRAEDTAVYYCARDVADAFDIWGQGTMVTVSS
VL: DIVMTQSPSFLSASVGDRVTITCRASQGISSYLAWYQQKPGKAPKLLIYAASTLQSGVPSRFSGSGSGTEFTLTISSLQPEDFATYYCQQLNSYPPFTFGPGTKVDIK
B3: YU505-A02 (antibody, V domains shown)
VH: QVQLVESGAEVKKPGSSVKVSCKASGGTFSSYAISWVRQAPGQGLEWMGGIIPIFGTANYAQKFQGRVTITADESTSTAYMELSSLRSEDTAVYYCARQIWAYDSSGYPVPAEYFQHWGQGTLVTVSS
VL: QSVLTQPPSVSGAPGQRVTISCTGSSSNIGAGYDVHWYQQLPGTAPKLLIYGNSNRPSGVPDRFSGSKSGTSASLAITGLQAEDEADYYCQSYDSSLSGVVFGGGTKLTVL
B4: YU536-D04 (antibody, V domains shown)
VH: QVQLVQSGGGLVQPGGSLRLSCAASGLTVSSNYMSWVRQAPGKGLEWVSVIYSGGSTYYADSVKGRFIISRDNSKNTLYLQMNSLRAEDTAVYYCARDLVVMGLDVWGKGTLVTVSS
VL: DIQLTQSPSSLSASVGDRVTITCRASQGISSYLAWYQQKPGKAPKLLIYAASTLQSGVPSRFSGSGSGTDFTLTISSLQPEDFATYYCQQLNSYPITFGQGTKLEIK
B5: YU537-H11 (antibody, V domains shown)
VH: B1 VH
VL: B1 VL
B6: STE90-C11 (antibody, V domains shown)
VH: B2 VH
VL: B2 VL
B7: YU505-E01 (antibody, V domains shown)
VH: QVQLVQSGAEVKKPGSSVKVSCKASGGTFSSYSIVWVRQAPGQGLEWMGGIIPIFGTTNYAQKFQGRVTITADESTSTAFMELSNLKSEDTAVYFCARSLGATRDYWGQGTLVTVSS
VL: SYVLTQPPSVSEAPRQRVTISCSGSSSNIGNNAVNWYQQLPGKAPKLLIYYDDLLPSGVSDRFSGSKSGTSASLAISGLQSEDEADYYCAAWDDSLNGPVFGGGTKVTVL
B8: YU505-F05 (antibody, V domains shown)
VH: EVQLLESGGGVVQPGRSLRLSCAASGFTFSSYGMHWVRQAPGKGLEWVAVMSYDGSKKYYADSVKGRFTISRDNSKNTLYLQMNSLRAEDTAVYYCVTQGMDVWGQGTLVTVSS
VL: QSVLTQPPSVSVAPGKTARITCGGNNIGSKSVHWYQQKPGQAPVLVIYYISDRPSGIPERFSGSNSGNTATLTISRVEAGDEAAYYCHVWDSSSDHVVFGGGTKLTVL

Where only a bound is given, the exact number is not on record here.

One assay has as its target RBD-mFc (Sino Biologicals) (SARS-CoV-2, UniProt P0DTC2 319-541). Kind of assay: BLI, RBD-mFc on anti-mouse Fc capture sensor, Fab in solution. (BLI is a label-free optical method that tracks binding on a fibre tip over time.)
Usually Kd stands for the constant that tells how readily two partners part at equilibrium. A low value points to a tighter complex. As for B1, binding was put at a Kd of 61.1 nM.
Molecule B2 displayed a Kd of 8.14 nM.

A further assay deals with T1, HCoV-NL63 Spike protein. Kind of assay: titration ELISA. In general terms: In an ELISA, binding on a coated surface is turned into a signal by an enzyme label.
As for B3, the binding result is “no binding”.
Consider B4, for which the binding result is listed as “no binding”.
On the same count and under the same terms, with B5 the entry was “no binding”; with B6, “no binding”.

A further assay has as its target SARS-CoV-1 Spike protein (SARS-CoV-1, UniProt P59594 14-667). Kind of assay: titration ELISA.
Turning to B3, the binding result is given as “no binding”.
Take B4: the binding result was “no binding”.
The same measure, in the same setting: with B5 the entry was “no binding”.
Take B6: the binding result is “no binding”.

In a further assay the target is T2, HCov-HKU1 Spike protein. Kind of assay: titration ELISA.
Consider B3, for which the binding result was “no binding”.
Turning to B4, the binding result was “no binding”.
Still for that read-out and setting: with B5 the entry was “no binding”; with B6, “no binding”.

The target in the next assay is T3, HCoV-229E Spike protein. Kind of assay: titration ELISA.
As to B3, the binding result is “no binding”.
In the case of B4, the binding result is listed as “no binding”.
On the same count and under the same terms, with B5 the entry was “no binding”.
Regarding B6, the binding result was “no binding”.

For a further assay, the target named is T4, MERS-CoV Spike protein. Kind of assay: titration ELISA.
Turning to B3, the binding result was “no binding”.
Still for that read-out and setting: with B4 the entry was “no binding”.
Still for that read-out and setting: as for B5, the entry is “no binding”.
Still for that read-out and setting: as for B6, the entry is “no binding”.

For the next assay, the target named is T5, receptor binding domain (RBD) of the S1-subunit of SARS-CoV-2 glycoprotein S (SARS-CoV-2, UniProt P0DTC2 319-541). Kind of assay: ACE2:RBD competition, antibody at 5 µg/ml.
Take B7: the “ACE2 bound to RBD at 5 µg/ml antibody” value was under 25%.
Same read-out and setting: with B8 the figure was under 30%.

A further assay concerns the target T5, receptor binding domain (RBD) of the …. Kind of assay: ACE2:RBD competition, antibody at 0.5 µg/ml.
Turning to B7, the “ACE2 bound to RBD at 0.5 µg/ml antibody” value was under 50%.
Same read-out and setting: as for B8, the figure is under 60%.

Another assay concerns the target SARS-CoV-2 glycoprotein S (SARS-CoV-2, UniProt P0DTC2 14-1273). Kind of assay: cell-based or functional assay.
Take B7: the “Confluence Score in VERO E6 cell assay” value was over 98%.
As for B8, the “Confluence Score in VERO E6 cell assay” value is over 95%.

The values are drawn from patent US20240059758A1 (CORAT THERAPEUTICS, published 2024).
